Biological target: IR-Rluc (insulin receptor fused to Rluc) (UniProt P06213)
Assay: FRET or BRET

Substance: IGF1R-YPET F450A (from UniProt P08069 31-1367) (receptor)
- fold change in BRET50 against the wild type: 2 fold
